The text below walks through data of paper PMC10716038, “Talin and kindlin use integrin tail allostery and direct binding to activate integrins” (Nature Structural & Molecular Biology, 2023).

Values joined by “and” are separate entries in the source; they are usually repeats but may differ in a detail not shown here. Identical values can stand only once. Like-named read-outs stand apart in the source and are kept apart here.

Assay [1] has as its target ATTO 488-labelled β1-CT^Y795A (UniProt P05556). The assay is described as follows: MST; ATTO 488-labelled β-CT peptide (50–200 nM) held constant, one unlabelled protein titrated; 20 mM Tris pH 7.5, 200 mM NaCl, 1 mM TCEP, 0.05% Tween-20; apparent affinities (near-saturation only).
Assay [2] has as its target ATTO 488-labelled β1-CT^Y783A (UniProt P05556). The assay is described as above.
Assay [3] addresses ATTO 488-labelled β1-CT (488–β1-CT) (UniProt P05556). The description is as above.
The target of assay [4] is ATTO 488-labeled β1–spacer–CT (UniProt P09055). The assay can be described thus: MST; apparent; THD1 titrated to 488–β1-spacer-CT in the presence of 30-35 µM KIND2; MST buffer.
Assay [5] addresses ATTO 488-labelled β1–spacer–CT (UniProt P05556). The assay can be described thus: MST; as a7, with a second unlabelled protein present at near-saturating concentration (named in the quantity or in the printed words); apparent constants (Kd,app*).
Assay [6] shares this target. The assay is described as follows: MST; ATTO 488-labelled β-CT peptide (50–200 nM) held constant, one unlabelled protein titrated; 20 mM Tris pH 7.5, 200 mM NaCl, 1 mM TCEP, 0.05% Tween-20; apparent affinities (near-saturation only).
For assay [7], the target named is ATTO 488-labeled β1–spacer–CT (UniProt P09055). The assay is described as follows: MST; unlabelled protein titrated to 50-200 nM ATTO 488-labelled β-CT peptide, no third protein; 20 mM Tris pH 7.5, 200 mM NaCl, 1 mM TCEP, 0.05% Tween-20; Kd of individual titrations (in S0002 mean and sd, n = 2).
The target in assay [8] is T1, α5-TM lacking the cytoplasmic domain (tailless α5-TM) in nanodiscs (UniProt P11688 993-1025, biotin (biotin-maleimide)).
T1 chain: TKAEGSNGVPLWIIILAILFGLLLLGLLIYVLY
The assay is described as follows: FACS; 10% PIP3 nanodiscs. On the technique in general: A flow cytometer gives signals particle by particle.

Assay [9] addresses T2, β1-TM–CT Y783A (THD1-binding impaired) in nanodiscs (UniProt P09055 726-798, Y783A, biotin (biotin-maleimide)). The assay can be described thus: FACS; 10% PIP3 nanodiscs.
Assay [10] concerns the target T3, β1 transmembrane and cytoplasmic tail polypeptide (β1-TM–CT) in nanodiscs (UniProt P05556 726-798, biotin (biotin-maleimide)).
T3 chain: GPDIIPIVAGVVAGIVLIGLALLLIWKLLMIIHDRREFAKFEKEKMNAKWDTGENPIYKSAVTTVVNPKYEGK
The assay is described as follows: FACS; 10% PIP3 nanodiscs.

Assay [11] deals with T4, β3 transmembrane and cytoplasmic tail polypeptide (β3-TM–CT) in nanodiscs (UniProt O54890 715-787, biotin (biotin-maleimide)).
T4 chain: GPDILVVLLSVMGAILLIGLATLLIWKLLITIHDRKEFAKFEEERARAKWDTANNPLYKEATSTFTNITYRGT
The assay can be described thus: FACS; 10% PIP3 nanodiscs.

Assay [12] addresses T1, α5-TM lacking the cytoplasmic domain …. The assay is described as follows: FACS; 10% PIP2 nanodiscs.
In assay [13] the target is T2, β1-TM–CT Y783A (THD1-binding impaired) …. The assay is described as follows: FACS; 10% PIP2 nanodiscs.
The target of assay [14] is T3, β1 transmembrane and cytoplasmic tail …. The assay can be described thus: FACS; 10% PIP2 nanodiscs.
Assay [15] has as its target T4, β3 transmembrane and cytoplasmic tail …. The assay can be described thus: FACS; 10% PIP2 nanodiscs.
The target in assay [16] is β1-TM–CT Y795A (KIND2-binding impaired) in nanodiscs (UniProt P09055 726-798, Y795A, biotin (biotin-maleimide)). The assay can be described thus: FACS; 10% PIP2 nanodiscs.
The target of assay [17] is ATTO 488-labelled β1–spacer–CT (UniProt P05556). The assay is described as follows: MST; ATTO 488-labelled β-CT peptide (50–200 nM) held constant, one unlabelled protein titrated; 20 mM Tris pH 7.5, 200 mM NaCl, 1 mM TCEP, 0.05% Tween-20; apparent affinities (near-saturation only). This is another data set of the same source.
Assay [18] concerns the target ATTO 488-labeled β1–spacer–CT (UniProt P09055). The assay can be described thus: MST; apparent; KIND2-Y13A titrated to 488–β3-CT or KIND2 to 488–β1-spacer-CT in the presence of 300-400 µM THD1; MST buffer.
The target in assay [19] is β1-TM–CT Y783A (THD1-binding impaired) in nanodiscs (UniProt P09055). The assay can be described thus: flow cytometry-based reporter-displacement assay (FC-RDA) on beads; biotinylated TM–CT in 10% PIP3/90% DMPC nanodiscs on streptavidin beads; reporter 50 nM 647–KIND2, unlabelled competitor titrated; 20 mM Tris pH 7.5, 200 mM NaCl, room temperature; IC50 of individual experiments; charged lipids contribute to the binding.

The target of assay [20] is ATTO 488-labeled β1–spacer–CT (UniProt P09055). The assay can be described thus: MST; unlabelled protein titrated to 50-200 nM ATTO 488-labelled β-CT peptide, no third protein; 20 mM Tris pH 7.5, 200 mM NaCl, 1 mM TCEP, 0.05% Tween-20; Kd of individual titrations (in S0002 mean and sd, n = 2). The source holds these as a separate data set.

ATTO 488-labelled β1-CT^Y783A, sequence (P05556 752-798 Y783A): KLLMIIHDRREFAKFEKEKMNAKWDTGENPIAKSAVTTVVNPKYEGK
ATTO 488-labelled β1-CT^Y795A, sequence (P05556 752-798 Y795A): as the sequence (P05556 752-798 Y783A) above, with A32Y, Y44A counted along it

In the case of TLN1-F3–ΔKIND2 fusion protein, the Kd in assay [1] came out at 470 µM. Also, the Kd in assay [2] was 4.8 µM. In assay [3], the Kd of the kindlin contribution (fit of concentrations up to 5 µM) came to 2.9 µM and the Kd of the talin contribution (fit of concentrations above 5 µM) was determined as 25 µM.

Consider “talin-1 head domain (THD1) (from UniProt P26039 1-405) (domain or fragment)”, for which the Kd in assay [4] is 254 µM and 320 µM and 262 µM; in assay [6], 181 µM; in assay [7], 178 µM and 171 µM and 193 µM. For the same molecule, the apparent Kd (Kd,app*) in the presence of KIND2 in assay [5] was determined as 279 µM.

B1: talin-1 head domain (THD1) (domain or fragment)
chain: MVALSLKISIGNVVKTMQFEPSTMVYDACRMIRERIPEALAGPPNDFGLFLSDDDPKKGIWLEAGKALDYYMLRNGDTMEYRKKQRPLKIRMLDGTVKTIMVDDSKTVTDMLMTICARIGITNHDEYSLVRELMEEKKDEGTGTLRKDKTLLRDEKKMEKLKQKLHTDDELNWLDHGRTLREQGVEEHETLLLRRKFFYSDQNVDSRDPVQLNLLYVQARDDILNGSHPVSFDKACEFAGFQCQIQFGPHNEQKHKAGFLDLKDFLPKEYVKQKGERKIFQAHKNCGQMSEIEAKVRYVKLARSLKTYGVSFFLVKEKMKGKNKLVPRLLGITKECVMRVDEKTKEVIQEWSLTNIKRWAASPKSFTLDFGDYQDGYYSVQTTEGEQIAQLIAGYIDIILKKKKS
In the case of B1, the IC50 was determined as 0.411 µM in [8]; 0.427 µM in assay [9]; 0.092 µM in [10]; 0.083 µM in assay [11]; 0.274 µM in assay [12]; 0.307 µM in [13]. In addition, the results for the 50% inhibitory concentration (IC50) in assay [14], in [15] and in assay [16] were 0.073 µM, 0.066 µM and 0.098 µM, respectively.

B2: kindlin-2 (KIND2) (natural protein)
chain: MALDGIRMPDGCYADGTWELSVHVTDLNRDVTLRVTGEVHIGGVMLKLVEKLDVKKDWSDHALWWEKKRTWLLKTHWTLDKCGIQADAKLQFTPQHKLLRLQLPNMKYVKVKVNFSDRVFKAVSDICKTFNIRHPEELSLLKKPRDPTKKKKKKLDDQSEDEALELEGPLIMPGSGSIYSSPGLYSKTMTPTYDAHDGSPLSPTSAWFGDSALSEGNPGILAVSQPVTSPEILAKMFKPQALLDKAKTNQGWLDSSRSLMEQDVKENEALLLRFKYYSFFDLNPKYDAIRINQLYEQAKWALLLEEIECTEEEMMMFAALQYHINKLSIMTSENHLNNSDKEVDEVDAALSDLEITLEGGKTSTILGDITSIPELADYIKVFKPKKLTLKGYKQYWCTFKDTSISCYKSREESSGTPAHQLNLRGCEVTPDVNISGQKFNIKLLIPVAEGMNEIWLRCDNEKQYAHWMAACRLASKGKTMADSSYNLEVQNILSFLKMQHLNPDPQLIPDQITTDVNPECLVSPRYLKKYKSKQITARILEAHQNVAQMSLIEAKMRFIQAWQSLPEFGITHFIARFQGGKREELIGIAYNRLIRMDASTGDAIKTWRFSNMKQWNVNWEIKMVTVEFADEVRLSFICTEVDCKVVHEFIGGYIFLSTRAKDQNESLDEEMFYKLTSGWV
Regarding B2, the apparent Kd (Kd,app*) in the presence of THD1 in assay [5] stood at 6 µM. For the same molecule, the Kd in [17] is 5 µM; in assay [18] it was 6.09 µM and 3.02 µM and 8.05 µM; in [20] it was 5.47 µM and 5.42 µM and 5.12 µM. Besides, the IC50 in assay [19] is 0.297 µM and 0.278 µM and 0.387 µM.

The IC50 is the concentration at which inhibition is half-maximal. Low values mean greater potency, high ones weaker potency.
